B1: D2-57 IgG1 (antibody, V domains shown)
VH: EVQLLESGGGLVQPGGSLRLSCAASGFTFSRYVMWWVRQAPGKGLEWVSYIWPSGGNTYYADSVKGRFTISRDNSKNTLYLQMNSLRAEDTAVYYCASSYDFWSNAFDIWGQGTMVTVSS
VL: DIQMTQSPSSLSASVGDRVTITCRASQSIGSYLNWYQQKTGKAPKALIYAASSLQSGVPSRFSGSGSGTDFTLTISSLQLEDFATYYCQQSYSTPSFGQGTKVEIKR
B2: D2-57 Fab (Fab, V domains shown)
VH: B1 VH
VL: B1 VL

Columns and labels:
[1] = target: whole LFA-1 in which the α subunit contains an I-domain in the high affinity locked open state, on cells (HA cells) (human) (UniProt P05107); assay: cell-based or functional assay
[2] = target: whole LFA-1 in which the α subunit contains an I-domain in the high affinity locked open state, on cells (HA cells) (human) (UniProt P05107); assay: inhibition of ICAM binding to HA cells, Guava analysis; second experiment; second experiment, second lot of D2-57 IgG
[3] = target: whole LFA-1 in which the α subunit contains an I-domain in the high affinity locked open state, on cells (HA cells) (human) (UniProt P05107); assay: inhibition of ICAM binding to HA cells, Guava analysis; second experiment; second experiment, first lot of D2-57 IgG
[4] = target: whole LFA-1 in which the α subunit contains an I-domain in the high affinity locked open state, on cells (HA cells) (human) (UniProt P05107); assay: inhibition of ICAM binding to HA cells, Guava analysis; first experiment; first experiment
[5] = target: whole LFA-1 in which the α subunit contains an I-domain in the high affinity locked open state, on cells (HA cells) (human) (UniProt P05107); assay: inhibition of ICAM binding to HA cells, Guava analysis; third experiment; third experiment
[6] = target: whole LFA-1 in which the α subunit contains an I-domain in the high affinity locked open state, on cells (HA cells) (human) (UniProt P05107); assay: inhibition of ICAM binding to HA cells, Guava analysis; fourth experiment; fourth experiment
[7] = target: whole LFA-1 in which the α subunit contains an I-domain in the high affinity locked open state, on cells (HA cells) (human) (UniProt P05107); assay: phage ELISA, HA form of LFA-1, without Mg2+; phage ELISA on HA cells, without Mg2+; signal at background
[8] = target: whole LFA-1 in which the α subunit contains an I-domain in the low affinity locked closed state, on cells (LA cells) (human) (UniProt P05107); assay: phage ELISA, LA form of LFA-1, with Mg2+
[9] = target: whole LFA-1 in which the α subunit contains an I-domain in the low affinity locked closed state, on cells (LA cells) (human) (UniProt P05107); assay: phage ELISA, LA form of LFA-1, without Mg2+
[10] = target: whole LFA-1 in which the α subunit contains an I-domain in the high affinity locked open state, on cells (HA cells) (human) (UniProt P05107); assay: phage ELISA, HA form of LFA-1, with Mg2+; phage ELISA on HA cells, with Mg2+
[11] = target: whole LFA-1 in which the α subunit contains an I-domain in the high affinity locked open state, on cells (HA cells) (human) (UniProt P05107); assay: ICAM-1 blocking assay on HA cells, soluble Fab, flow cytometry; ligand ICAM-1/SV-PE; soluble Fab, ICAM-1 blocking on HA cells, FACS

Binder | IC50 for inhibition of HA cell binding to keratinocytes [1] | IC50 [2] | IC50 [3] | IC50 [4] | IC50 [5] | IC50 [6] | ELISA signal (arbitrary units) [7] | ELISA signal (arbitrary units) [8] | ELISA signal (arbitrary units) [9] | ELISA signal (arbitrary units) [10] | IC50 [11]
B1 | 1 nM | 0.62 nM | 0.59 nM | 0.18 nM | 0.24 nM | 0.68 nM | – | – | – | – | –
B2 | – | – | – | – | – | – | 0.09 | 0.13 | 0.07 | 0.68 | 11.5 nM

Reference: patent US20080069777A1
